From the supplement of paper PMC9233669
Variants at the floor of the assay were thinned out.

Key:
[1] = system: biotinyl-Phe-oxazolone; assay: self-aminoacylation, catalytic enhancement (BFO) (fold over background); higher = more active; k-Seq, kA / k0A0; sequences stand for … in GGGAAUGGAUCCACAUCUACGAAUUC…UUCACUGCAGACUUGACGAAGCUG
Summary of the method: (§1)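 Mutagenized RNA pools with a 21-nt variable region (0.43 μM) reacted with each biotinyl-aminoacyl-oxazolone at 2–1250 μM. Reactions ran in 50 μL HEPES/NaCl/KCl/MgCl2/CaCl2 buffer with 5% acetonitrile, pH 6.9–7.0, for 90 minutes at room temperature. Streptavidin-captured RNA was quantified by triplicate qPCR and Illumina sequencing, and per-sequence fraction reacted was fit to a pseudo-first-order model with 1000 bootstraps. Catalytic enhancement is median kA divided by the uncatalyzed rate, the low-activity peak of a bimodal Gaussian fit.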

[2] = system: biotinyl-Ile-oxazolone; assay: self-aminoacylation, catalytic enhancement (BIO) (fold over background); higher = more active; k-Seq, kA / k0A0; sequences stand for … in GGGAAUGGAUCCACAUCUACGAAUUC…UUCACUGCAGACUUGACGAAGCUG
Summary of the method: as §1

[3] = system: biotinyl-Val-oxazolone; assay: self-aminoacylation, catalytic enhancement (BVO) (fold over background); higher = more active; k-Seq, kA / k0A0; sequences stand for … in GGGAAUGGAUCCACAUCUACGAAUUC…UUCACUGCAGACUUGACGAAGCUG
Summary of the method: as §1

[4] = system: biotinyl-Trp-oxazolone; assay: self-aminoacylation, catalytic enhancement (BWO) (fold over background); higher = more active; k-Seq, kA / k0A0; sequences stand for … in GGGAAUGGAUCCACAUCUACGAAUUC…UUCACUGCAGACUUGACGAAGCUG
Summary of the method: as §1

[5] = system: biotinyl-Met-oxazolone; assay: self-aminoacylation, catalytic enhancement (BMO) (fold over background); higher = more active; k-Seq, kA / k0A0; sequences stand for … in GGGAAUGGAUCCACAUCUACGAAUUC…UUCACUGCAGACUUGACGAAGCUG
Summary of the method: as §1

[6] = system: biotinyl-Leu-oxazolone; assay: self-aminoacylation, catalytic enhancement (BLO) (fold over background); higher = more active; k-Seq, kA / k0A0; sequences stand for … in GGGAAUGGAUCCACAUCUACGAAUUC…UUCACUGCAGACUUGACGAAGCUG
Summary of the method: as §1

Sequence	self-aminoacylation [1]	self-aminoacylation [2]	self-aminoacylation [3]	self-aminoacylation [4]	self-aminoacylation [5]	self-aminoacylation [6]
CUACUUCAAACAAUCAGUCUC [Fam1A.1 aminoacylation ribozyme variant]	25.9	0.833	0.904	8	0.723	0.872
CUACUUCAAACAAUCAGUCUU [Fam1A.1 aminoacylation ribozyme variant]	13.2	0.938	0.942	4.96	0.854	0.935
CUACUUCAAACAAUCCGUCAG [Fam1A.1 aminoacylation ribozyme variant]	0.797	0.951	0.934	0.643	0.684	0.613
CUACUUCAAACAAUCCGUCCG [Fam1A.1 aminoacylation ribozyme variant]	0.694	0.825	0.903	0.751	0.708	0.927
CUACUUCAAACAAUCCGUCUC [Fam1A.1 aminoacylation ribozyme variant]	1.18	0.634	0.751	0.858	0.471	0.44
CUACUUCAAACAAUCCGUGUG [Fam1A.1 aminoacylation ribozyme variant]	7.45	1.99	1.88	2.52	2.86	3.84
CUACUUCAAACAAUCGCUCUA [Fam1A.1 aminoacylation ribozyme variant]	0.778	0.862	0.948	0.736	1.05	0.642
CUACUUCAAACAAUCGCUCUC [Fam1A.1 aminoacylation ribozyme variant]	2.18	0.621	1.02	1.2	0.384	0.515
CUACUUCAAACAAUCGCUCUU [Fam1A.1 aminoacylation ribozyme variant]	0.851	0.938	0.856	0.632	0.772	0.539
CUACUUCAAACAAUCGGCCUG [Fam1A.1 aminoacylation ribozyme variant]	85.3	1.69	1.78	48.1	1.87	2.86
CUACUUCAAACAAUCGGGAUG [Fam1A.1 aminoacylation ribozyme variant]	5.85	0.904	1.02	4.46	0.844	1.19
CUACUUCAAACAAUCGGGCCG [Fam1A.1 aminoacylation ribozyme variant]	1.76	1.53	0.974	1.22	1.19	1.32
CUACUUCAAACAAUCGGGCUC [Fam1A.1 aminoacylation ribozyme variant]	5.16	1.01	1.17	2.48	1.08	0.971
CUACUUCAAACAAUCGGGCUU [Fam1A.1 aminoacylation ribozyme variant]	1.14	1.55	1.32	1.3	1.12	0.955
CUACUUCAAACAAUCGGGGUG [Fam1A.1 aminoacylation ribozyme variant]	2.9	3.04	2.35	3.36	3.77	4.32
CUACUUCAAACAAUCGGUCAA [Fam1A.1 aminoacylation ribozyme variant]	6.72	0.846	0.996	2.24	0.695	0.712
CUACUUCAAACAAUCGGUCCA [Fam1A.1 aminoacylation ribozyme variant]	1.79	0.753	0.757	0.907	0.654	0.633
CUACUUCAAACAAUCGGUGAG [Fam1A.1 aminoacylation ribozyme variant]	1.5	0.901	1.03	0.907	1.19	1.05
CUACUUCAAACAAUCGUACUG [Fam1A.1 aminoacylation ribozyme variant]	1.35	0.519	0.533	0.573	0.419	0.389
CUACUUCAAACAAUCGUCCUG [Fam1A.1 aminoacylation ribozyme variant]	0.798	0.562	0.791	0.491	0.407	0.394
CUACUUCAAACAAUCGUUCAG [Fam1A.1 aminoacylation ribozyme variant]	0.81	0.658	0.769	0.523	0.566	0.497
CUACUUCAAACAAUCUGCCUG [Fam1A.1 aminoacylation ribozyme variant]	1.33	0.913	0.751	0.605	1.04	0.957
CUACUUCAAACAAUCUUUCUG [Fam1A.1 aminoacylation ribozyme variant]	5.42	0.747	0.898	2.33	0.771	0.658
CUACUUCAAACAAUGGGGCUG [Fam1A.1 aminoacylation ribozyme variant]	0.625	1.12	1.1	0.497	0.841	0.707
CUACUUCAAACAAUUAGUCUG [Fam1A.1 aminoacylation ribozyme variant]	1.04	0.891	0.901	0.684	0.662	0.712
CUACUUCAAACAAUUGGCCUG [Fam1A.1 aminoacylation ribozyme variant]	2.28	1.57	1.33	2.03	1.11	1.34
